Source: the supplement of paper PMC9170038

Test system: MS2 coat protein
Assay: apparent KD of MS2 coat protein; designed switch direction (-1 OFF switch, 1 ON switch): -1; higher = weaker reporter binding
How it was run: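 Designed RNA switches sharing common flanks were transcribed on Illumina chips by stalled E. coli RNA polymerase. They were titrated with SNAP-549-labelled MS2 coat protein, from 0.7 or 1.5 nM doubling to 3 µM, in Tris-HCl pH 7.5 buffer with KCl, MgCl2, BSA, DTT, tRNA and Tween-20. Titrations ran without input, with 200 uM small-molecule ligand, or with an oligonucleotide input. The apparent KD of each design is the median over its clusters, after curve-fitting of normalised cluster fluorescence.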

[1] = Eterna round: R95, input ligand: FMN 200 uM
[2] = Eterna round: R95, input ligand: microRNA oligo, concentration not stated
[3] = Eterna round: R95, input ligand: none
[4] = input ligand: microRNA oligo, concentration not stated

| Sequence | apparent KD of MS2 coat protein [1] [nM] | apparent KD of MS2 coat protein [2] [nM] | apparent KD of MS2 coat protein [3] [nM] | apparent KD of MS2 coat protein (input ligand: FMN 200 uM) [nM] | apparent KD of MS2 coat protein [4] [nM] | apparent KD of MS2 coat protein (input ligand: none) [nM] |
| --- | --- | --- | --- | --- | --- | --- |
| UACUAAAAGGAGGAUAUCGUAUCGGAAACGAUACGAGAAGGCUUAACAUGAGGAUCACCCAUGUUCUUCAAUAA [Mat - Exclusion 6 - Eli Mod - D88] (puzzle: Exclusion 6) | 24.6 | 17.3 | 16.4 | – | – | – |
| UACUAAAAGGAGGAUAUCGUAUCGGAGACGAUACGAGAAGGCUUAACAUGAGGAUCACCCAUGUUCUUCAAUAU [Mat - Exclusion 6 - Eli Mod - D96] (puzzle: Exclusion 6) | – | 14.8 | – | – | – | – |
| UAGAAGGUAGGAUAUACGAAUAAAUAGGGUAGGAAGAAGACACAUGAGGAUCACCCAUGUAGAAGGACCAAGAU [Mat - Exclusion 2 - Mod of my Tesla design - D34] (puzzle: Exclusion 2) | 36.6 | 17.5 | 18.5 | – | – | – |
| UAGAAUCGAGGAUAUACAUGAGGAUCACCCAUGUGUGGCCAUUUGGUGUGGUCGUCAGGUAGAAGGCGAUUACA [Exclusion 3 - Mod of Jieux's Gilly Gone Silly 23 v.5] (Eterna round: R96, puzzle: Exclusion 3) | – | – | – | 173 | 211 | 412 |
| UAGAAUCGAGGAUAUACAUGAGGAUCACCCAUGUGUGGCCAUUUGGUGUGGUCGUCAGGUAGAAGGCGAUUACA [Exclusion 3 - Mod of Jieux's Gilly Gone Silly 23 v.5] (puzzle: Exclusion 3) | – | 141 | – | – | – | – |
| UAGAAUCGAGGAUAUACAUGAGGAUCACCCAUGUGUUGCCGCGUGAUGUGUUUGUCAGGUAGAAGGCGAUUAUA [Exclusion 3 - Mod of Jieux's Gilly Gone Silly 23 v.8] (puzzle: Exclusion 3) | – | 63.8 | – | – | – | – |
| UAGAGACAUGAGGAUCACCCAUGUCAGGAUAUCUGCUUAGACAGGUUCACGGUCUAGUAGAGAAGGGACUGGAG [Eternabot (L2) Solution 42] (Eterna round: R97, puzzle: Exclusion 1) | – | – | – | 121 | – | 87.4 |
| UAGAUGCUCAGGGAGUGUGACAUGAGGAUCACCCAUGUGGUGGUAGGGAACAAGCUUUUUGCACGUACUUAUGAGUA [JR_SV3TOV1_Sub007] (Eterna round: R96, puzzle: Sensor v3, turn-off variant 1) | – | – | – | 435 | 148 | 497 |
| UAGAUGCUCAGGGAGUGUGACAUGAGGAUCACCCAUGUGGUGGUAGGGAACAAGCUUUUUGCACGUACUUAUGAGUA [JR_SV3TOV1_Sub007] (puzzle: Sensor v3, turn-off variant 1) | 64.9 | 18.3 | 117 | – | – | – |
| UAGAUGGGAGGAUAUGCAUAGAUACAGAUUCAUGUAGUGCUACAUGAGGAUCACCCAUGUAGAAGGCCCGUCUU [JL-ex2-2.20 Mayanne mod] (Eterna round: R96, puzzle: Exclusion 2) | – | – | – | 208 | 22.1 | 24.1 |
| UAGAUGGGAGGAUAUGCAUAGAUACAGAUUCAUGUAGUGCUACAUGAGGAUCACCCAUGUAGAAGGCCCGUCUU [JL-ex2-2.20 Mayanne mod] (puzzle: Exclusion 2) | – | 19.9 | – | – | – | – |
| UAGAUGGGAGGAUAUGCAUAGAUACAGAUUCGUGUAGUGCUACAUGAGGAUCACCCAUGUAGAAGGCCCGUCUU [JL-ex2-2.22 Mayanne mod] (puzzle: Exclusion 2) | – | 14.2 | – | – | – | – |
| UAGAUGGGAGGAUAUGCGUAGAUACGGAUUCGUGUAGUGCUACAUGAGGAUCACCCAUGUAGAAGGCCCGUCUU [JL-ex2-2.28 Mayanne mod] (puzzle: Exclusion 2) | – | 13.9 | – | – | – | – |
| UAGCAUUGCCUUUGGUAGUGCCUUACAUGAGGAUCACCCAUGUAGGAUAUGGUAGGCUUUGCUUACCAGAAGGACAUGGUAAUU [JL ENG3 1.06] (Eterna round: R96, puzzle: Exclusion NG 3) | – | – | – | – | 54.1 | – |
| UAGCAUUGCCUUUGGUAGUGCUAUACAUGAGGAUCACCCAUGUAGGAUAUGGUCGGCUUUGCUGACCAGAAGGACAUGUGUAUU [MOD2 ENG3 1.04 by JL] (Eterna round: R96, puzzle: Exclusion NG 3) | – | – | – | 159 | 91.5 | 93.1 |
| UAGGCACCUGCAGGAUAUUAGAGGCGCUUUCUGUAAGAAGGGCAGGUUCACAUGAGGAUCACCCAUGUAAAGAACAGCAUGGCA [Eternabot solution 24] (Eterna round: R96, puzzle: Exclusion NG 1) | – | – | – | 23.1 | 17.4 | 28.9 |
| UAGGUACAUGAGGAUCACCCAUGUGAGGAUAUAGUUGAAGAUUGCGAGAGGUUGAGGACUAGAAGGCACAGUGG [JR_Exclu1_Sub038] (puzzle: Exclusion 1) | 137 | 63.5 | 90.2 | – | – | – |
| UAGGUGUGAGGAUAUGGUAAAGAUAAGAUGAUGAAAGAACUCCAGAAGGCACAUGAGGAUCACCCAUGUAGAUG [JL-ex4-2.16 Jieux mod] (puzzle: Exclusion 4) | – | 33.3 | – | – | – | – |
| UAGUAUAUCUAUGGGAGUAACAUGAGGAUCACCCAUGUAUGUCUUGUUUUUUGUUCGUCAUAGGCCGGUUGAACGGU [JR_SV3TOV1_Sub027] (puzzle: Sensor v3, turn-off variant 1) | 23.3 | 27.7 | 26.5 | – | – | – |
| UAGUGAAACACAGGAUAUCGCCUCUUAUUACAUGAGGAUCACCCAUGUUUAGUUAGUUACAUGUACGAGAAGGGUGAAGUAGUU [JR_ExcNG2_Sub040] (Eterna round: R96, puzzle: Exclusion NG 2) | – | – | – | 1110 | 674 | 1430 |
| UAGUGGUUACGUUGGAGUUGUAUGAGCGGAGGCUCUGUGACAUGAGGAUCACCCAUGUAGCUUUUUGCUCGUCUUAA [JR_SV3TOV2_Sub039] (puzzle: Sensor v3, turn-off variant 2) | 22.5 | 41.5 | 22.6 | – | – | – |
| UAUAAACAUGAGGAUCACCCAUGUGAGGAUAUCUAAACCAGAGCGGAUCUCUGGACCAAGAGAAGGUGCAUGGU [ElNandoxlusion 10 - Jieux - Exclusion 1] (Eterna round: R97, puzzle: Exclusion 1) | – | – | – | 66.9 | – | 31.7 |
| UAUAAAGGCUCAGGAUAUGGUGCGUCACAUGAGGAUCACCCAUGUAACGUGGCGGAACCUGCGCGCUAGAAGGGAGUAGCGAAA [Laensoqu] (Eterna round: R96, puzzle: Exclusion NG 2) | – | – | – | 8.44 | 8.05 | 10.7 |
| UAUAAGAUAGGAUAUACAGGCCCGUCUUCAUAUUGAUCCCGACAUGAGGAUCACCCAUGUAGAAGGAUCGUAUA [Mod 23 - Jieux - Exclusion 2] (Eterna round: R97, puzzle: Exclusion 2) | – | – | – | 23.3 | – | 21.9 |
| UAUAAUCGAGGAUAUACAUGAGGAUCACCCAUGUGUUGCCGCGUGACAUGAUCGUCAGGUAGAAGGCGAUUAUA [Exclusion 3 - Mod of Jieux's Gilly Gone Silly 23 v.10] (puzzle: Exclusion 3) | – | 147 | – | – | – | – |
